Columns and labels:
Test in all cases: SPR
pPGT121-LS = biological target: pPGT121-LS
pPGT121-YTE = biological target: pPGT121-YTE
pVRC07-523-LS = biological target: pVRC07-523-LS
pPGT121 = biological target: pPGT121

| Kd (pPGT121-LS) | Kd (pPGT121-YTE) | Kd (pVRC07-523-LS) | Kd (pPGT121) | Substance |
| --- | --- | --- | --- | --- |
| > 20 µM | > 20 µM | > 20 µM | > 20 µM | Rhesus macaque FcγR IIIa-1 (from UniProt A3RFZ7 21-254) (receptor) |
| > 20 µM | > 20 µM | > 20 µM | > 20 µM | Rhesus macaque FcγR IIIa-3 (from UniProt A3RFZ7 21-254) (receptor) |
| > 20 µM | > 20 µM | > 20 µM | > 20 µM | Rhesus macaque FcγR IIa-2 (receptor) |
| > 20 µM | > 20 µM | > 20 µM | > 20 µM | Rhesus macaque FcγR IIa-4 (receptor) |
| > 20 µM | > 20 µM | > 20 µM | > 20 µM | Rhesus macaque FcγR IIb-1 (receptor) |
